# Several values for one entry are separate records, joined by “and”; a condition that tells them apart may be missing. Identical values can stand only once. No end group written: not given here.
# B1: SG pep2-8-2478 (M13 phage-displayed peptide, fused to pVIII) (peptide)
# peptide: SGTVFTSWEEYLDWV
# modifications: not fully specified
# notes: Samples A and B are identical replicates prepared separately; also called Sample 5A; Sample 5B; not shown: M13 major coat protein pVIII (display carrier) and any linker between peptide and pVIII
# What was measured:
# [1] = target: T1, proprotein convertase subtilisin/kexin type 9 (PCSK9) (UniProt Q8NBP7 31-692, limits assumed); assay: CSOD; phage immobilised on fiber probe, PCSK9 in solution, global first-order fit
# T1 construct: Analyte in solution in both CSOD and SPR; also called PCSK9 protein
# Text: The fiber probes were switched from a well containing a buffer to a well containing PCSK9 at 0 s for the measurement of the association process (downward facing arrow) and then switched back to the buffer well at the time indicated by the upward facing arrow for the measurement of the dissociation process.
# The binding of different concentrations of PCSK9 proteins to the functionalized probes was studied in a 40-time diluted PBS buffer. For each measurement, a baseline was first established by dipping the functionalized fiber tip into a microplate well with a buffer; then, the fiber was switched to another well containing PCSK9 protein solution to measure the association curve. Finally, the fiber was moved back to the buffer well and the dissociation process was recorded. By fitting the kinetic curves at different concentrations globally with first order kinetics using Scrubber v.2.0c, the association rate constants (ka), dissociation rate constants (kd), and equilibrium constants (KD) for all samples are summarized in Table 2.
# [2] = target: T1, proprotein convertase subtilisin/kexin …; assay: CSOD; comparison of KD values of Table 2
# T1 sequence (Q8NBP7 31-692 limits assumed): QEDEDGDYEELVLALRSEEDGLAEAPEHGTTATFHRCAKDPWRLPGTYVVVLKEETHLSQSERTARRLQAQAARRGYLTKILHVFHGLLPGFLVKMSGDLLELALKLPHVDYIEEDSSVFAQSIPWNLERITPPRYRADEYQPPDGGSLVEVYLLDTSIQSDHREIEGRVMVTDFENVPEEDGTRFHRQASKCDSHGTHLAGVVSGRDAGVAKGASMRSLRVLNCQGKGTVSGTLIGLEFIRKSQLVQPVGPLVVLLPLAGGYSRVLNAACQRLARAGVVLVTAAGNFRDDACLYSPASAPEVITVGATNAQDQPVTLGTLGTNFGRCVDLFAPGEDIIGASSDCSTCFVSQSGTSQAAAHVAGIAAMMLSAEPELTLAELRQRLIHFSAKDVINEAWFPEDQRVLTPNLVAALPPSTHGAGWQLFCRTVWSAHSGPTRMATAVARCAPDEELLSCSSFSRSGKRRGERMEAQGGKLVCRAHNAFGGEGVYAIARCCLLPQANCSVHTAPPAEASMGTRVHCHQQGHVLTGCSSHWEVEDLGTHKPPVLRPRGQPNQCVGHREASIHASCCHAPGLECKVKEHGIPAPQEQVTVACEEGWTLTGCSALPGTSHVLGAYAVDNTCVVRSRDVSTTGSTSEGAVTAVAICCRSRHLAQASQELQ
binder,measurement,setting,value
B1,Kd,[1],370 nM and 380 nM
same,koff,[1],0.00154 s⁻¹ and 0.00119 s⁻¹
same,kon,[1],4200 M⁻¹ s⁻¹ and 3130 M⁻¹ s⁻¹
same,fold affinity change against Sample #4 (no SG pep2-8-2478),[2],~2 fold

# — patent US20240272082A1 (ARIZONA BOARD OF REGENTS ON BEHALF OF ARIZONA STATE …, published 2024)
